# Laboratory results as given in IntAct's records for PubMed 22817896.
# B1: Receptor-interacting serine/threonine-protein kinase 3 (Homo sapiens), Q9Y572 (parent)
# chain: MSCVKLWPSGAPAPLVSIEELENQELVGKGGFGTVFRAQHRKWGYDVAVKIVNSKAISREVKAMASLDNEFVLRLEGVIEKVNWDQDPKPALVTKFMENGSLSGLLQSQCPRPWPLLCRLLKEVVLGMFYLHDQNPVLLHRDLKPSNVLLDPELHVKLADFGLSTFQGGSQSGTGSGEPGGTLGYLAPELFVNVNRKASTASDVYSFGILMWAVLAGREVELPTEPSLVYEAVCNRQNRPSLAELPQAGPETPGLEGLKELMQLCWSSEPKDRPSFQECLPKTDEVFQMVENNMNAAVSTVKDFLSQLRSSNRRFSIPESGQGGTEMDGFRRTIENQHSRNDVMVSEWLNKLNLEEPPSSVPKKCPSLTKRSRAQEEQVPQAWTAGTSSDSMAQPPQTPETSTFRNQMPSPTSTGTPSPGPRGNQGAERQGMNWSCRTPEPNPVTGRPLVNIYNCSGVQVGDNNYLTMQQTTALPTWGLAPSGKGRGLQHPPPVGSQEGPKDPEAWSRPQGWYNHSGK
# B2: Receptor-interacting serine/threonine-protein kinase 1 (Homo sapiens), Q13546 (parent)
# chain: MQPDMSLNVIKMKSSDFLESAELDSGGFGKVSLCFHRTQGLMIMKTVYKGPNCIEHNEALLEEAKMMNRLRHSRVVKLLGVIIEEGKYSLVMEYMEKGNLMHVLKAEMSTPLSVKGRIILEIIEGMCYLHGKGVIHKDLKPENILVDNDFHIKIADLGLASFKMWSKLNNEEHNELREVDGTAKKNGGTLYYMAPEHLNDVNAKPTEKSDVYSFAVVLWAIFANKEPYENAICEQQLIMCIKSGNRPDVDDITEYCPREIISLMKLCWEANPEARPTFPGIEEKFRPFYLSQLEESVEEDVKSLKKEYSNENAVVKRMQSLQLDCVAVPSSRSNSATEQPGSLHSSQGLGMGPVEESWFAPSLEHPQEENEPSLQSKLQDEANYHLYGSRMDRQTKQQPRQNVAYNREEERRRRVSHDPFAQQRPYENFQNTEGKGTAYSSAASHGNAVHQPSGLTSQPQVLYQNNGLYSSHGFGTRPLDPGTAGPRVWYRPIPSHMPSLHNIPVPETNYLGNTPTMPFSSLPPTDESIKYTIYNSTGIQIGAYNYMEIGGTSSSLLDSTNTNFKEEPAAKYQAIFDNTTSLTDKHLDPIRENLGKHWKNCARKLGFTQSQIDEIDHDYERDGLKEKVYQMLQKWVMREGIKGATVGKLAQALHQCSRIDLLSSLIYVSQN
# Variants of: B1
# Conditions: with ripk1_human RIPK1, Q13546
row,effect of a mutation on the interaction,Variant
1,decreasing interaction strength,Q459D
2,decreasing interaction strength,V458D
3,decreasing interaction strength,V460D
4,decreasing interaction strength,G457D
5,decreasing interaction strength,S456D
6,decreasing interaction strength,G461D
7,decreasing interaction strength,V458E;V460E
8,decreasing interaction strength,D462K

# Variants of: B1
# Conditions: with ripk1_human RIPK1, Q13546
# Remark: another data set of the same source
row,effect of a mutation on the interaction,Variant
1,decreasing interaction strength,Q459P
2,decreasing interaction strength,V458P
3,decreasing interaction strength,V460P
4,decreasing interaction strength,G461P

# Variants of: B2
# Conditions: with ripk3_human RIPK3, Q9Y572
row,effect of a mutation on the interaction,Variant
1,decreasing interaction strength,I539D
2,decreasing interaction strength,N545D
3,decreasing interaction strength,Q540D
4,decreasing interaction strength,G542D
5,decreasing interaction strength,Y544D
6,decreasing interaction strength,A543D
7,decreasing interaction strength,I541D
